Test results as given in patent US20220088279A1 (GAMBRO LUNDIA, published 2022).

Biological target: T1, CD177 (UniProt Q8N6Q3 22-408, limits assumed)
T1 construct: Immobilized on a GLH sensor chip by amine chemistry for SPR; also called neutrophil receptor CD177
T1 sequence (looked up): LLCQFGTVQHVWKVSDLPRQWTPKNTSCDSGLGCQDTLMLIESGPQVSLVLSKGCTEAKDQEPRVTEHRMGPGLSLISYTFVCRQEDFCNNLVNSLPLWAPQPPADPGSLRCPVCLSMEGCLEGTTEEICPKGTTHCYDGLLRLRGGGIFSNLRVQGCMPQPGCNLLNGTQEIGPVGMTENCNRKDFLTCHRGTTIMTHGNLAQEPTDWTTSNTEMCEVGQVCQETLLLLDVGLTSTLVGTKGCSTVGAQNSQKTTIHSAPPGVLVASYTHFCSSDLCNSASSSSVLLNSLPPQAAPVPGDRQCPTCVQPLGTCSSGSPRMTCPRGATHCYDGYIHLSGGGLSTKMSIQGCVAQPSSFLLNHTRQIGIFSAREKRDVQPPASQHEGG
Experiment: SPR (ProteOn XPR36), CD177 immobilized on GLH chip by amine chemistry, PR3 variant in a concentration series
Protocol: FIG. 2: Comparison of wtPR3 and monomeric PR3 properties by SPR and ELISA. […] The antibodies each recognize distinct, non-overlapping epitopes on PR3. wtPR3 (left bar) and the monomeric Trp222Ala PR3 variant (right bar) are equally well recognized by the antibodies.
Experiments were performed on a ProteOn XPR36 instrument (BioRad) with proteins immobilized to GLH sensor chips (BioRad) using standard amine chemistry. The binding interaction of a concentration series of soluble monomeric Trp222Ala PR3 variant with immobilized CD177 was assessed (FIG. 2A).

Kd: 57 nM
B1: monomeric Trp222Ala PR3 variant (enzyme)
chain: IVGGHEAQPHSRPYMASLQMRGNPGSHFCGGTLIHPSFVLTAAHCLRDIPQRLVNVVLGAHNVRTQEPTQQHFSVAQVFLNNYDAENKLNDVLLIQLSSPANLSASVATVQLPQQDQPVPHGTQCLAMGWGRVGAHDPPAQVLQELNVTVVTFFCRPHNICTFVPRRKAGICFGDSGGPLICDGIIQGIDSFVIAGCATRLFPDFFTRVALYVDWIRSTLRRVEAKGRP
notes: Made as a C-terminal fusion with human Ig1 Fc and secreted through an N-terminal Ig1 signal peptide; The propeptides aa 26-27 and aa 249-256 may also be absent, and residues left by the TEV site may remain at the C-terminus; also called monomeric PR3
